The labels stand for the following.
B1: hzsp34.87 (antibody, human IgG1, lambda, L234A L235A, V domains shown)
VH: EVQLVESGGGLVQPGGSLKLSCAASGFTFNTYAMNWVRQASGKGLEWVGRIRSKYNNYATYYADSVKDRFTISRDDSKSTLYLQMNSLKTEDTAVYYCARHYNFGQSYVSWFAYWGQGTTVTVSS
VL: QAVVTQEPSLTVSPGGTVTLTCRSSTGAVTTSNYANWVQQKPGQAPRGLIGGTNKRAPGVPARFSGSLLGDKAALTLLGAQPEDEAEYYCALWYSNLWVFGQGTKLTVLG
notes: CDR mutant of hzsp34.24; IgG1 L234A L235A, lambda
B2: hzsp34.88 (antibody, human IgG1, lambda, L234A L235A, V domains shown)
VH: B1 VH with Y102G, N103G
VL: B1 VL
notes: as for B1
B3: hzsp34.93 (antibody, human IgG1, lambda, L234A L235A, V domains shown)
VH: B1 VH with Y102G, Y108A
VL: B1 VL
notes: as for B1
B4: hzsp34.94 (antibody, human IgG1, lambda, L234A L235A, V domains shown)
VH: B1 VH with Y102G, V109A
VL: B1 VL
notes: as for B1
B5: hzsp34.100 (antibody, human IgG1, lambda, L234A L235A, V domains shown)
VH: B1 VH with Y102G, Q106G, S107R
VL: B1 VL
notes: as for B1
B6: hzsp34.92 (antibody, human IgG1, lambda, L234A L235A, V domains shown)
VH: B1 VH with Y102G, S107R
VL: B1 VL
notes: as for B1
B7: hzsp34.108 (antibody, human IgG1, lambda, L234A L235A, V domains shown)
VH: B1 VH with Y102G
VL: B1 VL with Y94A
notes: as for B1
B8: hzsp34.91 (antibody, human IgG1, lambda, L234A L235A, V domains shown)
VH: B1 VH with Y102G, Q106G
VL: B1 VL
notes: as for B1
B9: hzsp34.102 (antibody, human IgG1, lambda, L234A L235A, V domains shown)
VH: B1 VH with Y102G
VL: B1 VL with R23G
notes: as for B1
B10: hzsp34.110 (antibody, human IgG1, lambda, L234A L235A, V domains shown)
VH: B1 VH with Y102G
VL: B1 VL with N96G
notes: as for B1
B11: hzsp34.104 (antibody, human IgG1, lambda, L234A L235A, V domains shown)
VH: B1 VH with Y102G
VL: B1 VL with T31G
notes: as for B1
B12: hzsp34.112 (antibody, human IgG1, lambda, L234A L235A, V domains shown)
VH: B1 VH with Y102G
VL: B1 VL with S32R, N33G
notes: as for B1
B13: hzsp34.111 (antibody, human IgG1, lambda, L234A L235A, V domains shown)
VH: B1 VH with Y102G
VL: B1 VL with T30G, T31G
notes: as for B1
B14: hzsp34.113 (antibody, human IgG1, lambda, L234A L235A, V domains shown)
VH: B1 VH with Y102G
VL: B1 VL with W93A, Y94A
notes: as for B1
B15: hzsp34.114 (antibody, human IgG1, lambda, L234A L235A, V domains shown)
VH: B1 VH with Y102G
VL: B1 VL with S95R, N96G
notes: as for B1
B16: hzsp34.109 (antibody, human IgG1, lambda, L234A L235A, V domains shown)
VH: B1 VH with Y102G
VL: B1 VL with S95R
notes: as for B1
B17: hzsp34.99 (antibody, human IgG1, lambda, L234A L235A, V domains shown)
VH: B1 VH with Y102G, F104A, G105Y
VL: B1 VL
notes: as for B1
B18: hzsp34.89 (antibody, human IgG1, lambda, L234A L235A, V domains shown)
VH: B1 VH with Y102G, F104A
VL: B1 VL
notes: as for B1
B19: hzsp34.103 (antibody, human IgG1, lambda, L234A L235A, V domains shown)
VH: B1 VH with Y102G
VL: B1 VL with T30G
notes: as for B1
B20: hzsp34.107 (antibody, human IgG1, lambda, L234A L235A, V domains shown)
VH: B1 VH with Y102G
VL: B1 VL with W93A
notes: as for B1
B21: hzsp34.106 (antibody, human IgG1, lambda, L234A L235A, V domains shown)
VH: B1 VH with Y102G
VL: B1 VL with N33G
notes: as for B1
B22: hzsp34.101 (antibody, human IgG1, lambda, L234A L235A, V domains shown)
VH: B1 VH with Y102G, Y108A, V109A
VL: B1 VL
notes: as for B1
B23: hzsp34.98 (antibody, human IgG1, lambda, L234A L235A, V domains shown)
VH: B1 VH with N103G
VL: B1 VL
notes: as for B1
B24: hzsp34.105 (antibody, human IgG1, lambda, L234A L235A, V domains shown)
VH: B1 VH with Y102G
VL: B1 VL with S32R
notes: as for B1

Broadly, the Kd is a measure of binding affinity in units of concentration. Low values mean tighter binding, high ones weaker binding. One may read the koff as a measure of how fast the partners let go of each other. A lower koff goes with slow dissociation. In general, kon refers to the rate constant with which the complex forms.

Where a chain is given by its changes, count along the chain named. Names may count otherwise.

For the first assay, the target named is T1, human CD3E&G complex (Sino Biological Inc., CT041-H0305H) (human, UniProt P07766 23-126; P09693 23-116).
T1 construct: bought heterodimer; also called human CD3E&G antigen
T1 sequence (P07766 23-126, chain 1 of 2): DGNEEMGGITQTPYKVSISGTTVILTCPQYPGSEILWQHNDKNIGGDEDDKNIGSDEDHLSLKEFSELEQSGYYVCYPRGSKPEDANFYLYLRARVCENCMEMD
T1 sequence (P09693 23-116, chain 2 of 2): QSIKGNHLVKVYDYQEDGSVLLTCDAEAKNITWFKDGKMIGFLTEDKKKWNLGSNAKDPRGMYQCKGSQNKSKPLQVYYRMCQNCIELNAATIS
Kind of assay: BLI, antibody on sensor. Background: BLI is a label-free optical method that tracks binding on a fibre tip over time.
The molecule B1 returned a Kd of 6.06 nM, a koff of 0.000997 s⁻¹ and a kon of 165000 M⁻¹ s⁻¹.

The molecule B2 yielded a Kd of 15.8 nM, a koff of 0.00205 s⁻¹ and a kon of 130000 M⁻¹ s⁻¹.

Turning to B3, the dissociation constant Kd amounted to 3.42 nM, the koff amounted to 0.000836 s⁻¹ and the kon is 245000 M⁻¹ s⁻¹.

B4 gave a Kd of 4.63 nM, a koff of 0.000821 s⁻¹ and an on-rate (kon) of 177000 M⁻¹ s⁻¹.

B5: binding was put at a Kd of 8.33 nM, the koff came out at 0.00171 s⁻¹ and the kon was 205000 M⁻¹ s⁻¹.

B6 displayed a Kd of 4.82 nM, a koff of 0.00101 s⁻¹ and a kon of 210000 M⁻¹ s⁻¹.

In turn, B7 had a Kd of 7.19 nM, a koff of 0.00146 s⁻¹ and a kon of 203000 M⁻¹ s⁻¹.

In turn, B8 gave a Kd of 8.53 nM, a koff of 0.00195 s⁻¹ and a kon of 228000 M⁻¹ s⁻¹.

Consider B9, for which the Kd worked out at 8.52 nM, the koff is 0.0019 s⁻¹ and the kon turned out to be 222000 M⁻¹ s⁻¹.

The molecule B10 yielded a Kd of 8.49 nM, a koff of 0.00188 s⁻¹ and a kon of 222000 M⁻¹ s⁻¹.

With B11, the dissociation constant Kd is 8.54 nM, the koff was 0.00198 s⁻¹ and the kon was 231000 M⁻¹ s⁻¹.

The molecule B12 showed a Kd of 6.6 nM, a koff of 0.00155 s⁻¹ and a kon of 235000 M⁻¹ s⁻¹.

For the molecule B13, the Kd was determined as 9.5 nM, the koff amounted to 0.00191 s⁻¹ and the kon turned out to be 201000 M⁻¹ s⁻¹.

B14: the dissociation constant (Kd) was 3.71 nM, the koff was determined as 0.000811 s⁻¹ and the association rate constant (kon) was 219000 M⁻¹ s⁻¹.

Turning to B15, the Kd is 6.69 nM, the koff came out at 0.00134 s⁻¹ and the kon amounted to 200000 M⁻¹ s⁻¹.

Molecule B16 displayed a Kd of 9.02 nM, a koff of 0.0021 s⁻¹ and a kon of 233000 M⁻¹ s⁻¹.

In the case of B17, the binding result was “no binding”.

Molecule B18 yielded an equilibrium dissociation constant (Kd) of 13.8 nM, a koff of 0.00282 s⁻¹ and a kon of 205000 M⁻¹ s⁻¹.

B19 registered a dissociation constant Kd of 7.57 nM, a koff of 0.00191 s⁻¹ and an on-rate constant (kon) of 253000 M⁻¹ s⁻¹.

Take B20: the Kd came out at 59.8 nM, the koff came out at 0.00446 s⁻¹ and the kon was 74600 M⁻¹ s⁻¹.

Molecule B21 displayed an equilibrium dissociation constant (Kd) of 10.3 nM, a koff of 0.00237 s⁻¹ and a kon of 230000 M⁻¹ s⁻¹.

Molecule B22 displayed a Kd of 4.3 nM, a koff of 0.000636 s⁻¹ and an on-rate (kon) of 148000 M⁻¹ s⁻¹.

B23: the binding result is “no binding”.

Regarding B24, binding was characterised by a dissociation constant (Kd) of 10.6 nM, the koff was found to be 0.0021 s⁻¹ and the kon was 199000 M⁻¹ s⁻¹.

Another assay deals with T2, human CD3 E&D complex protein (Sino Biological Inc., CT026H0323H) (human, UniProt P07766 23-126; P04234 22-105).
T2 construct: bought heterodimer; also called human CD3 protein (CT026H0323H)
T2 sequence (P07766 23-126, chain 1 of 2): as the sequence (P07766 23-126, chain 1 of 2) above
T2 sequence (P04234 22-105, chain 2 of 2): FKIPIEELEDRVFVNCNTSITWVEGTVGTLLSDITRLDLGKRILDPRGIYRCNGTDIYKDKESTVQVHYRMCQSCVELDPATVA
Nature of the assay: BLI, antibody on sensor.
Take B1: the Kd worked out at 0.88 nM, the koff was found to be 0.000152 s⁻¹ and the kon was found to be 173000 M⁻¹ s⁻¹.

For B2, the Kd came out at 4.55 nM, the koff is 0.000797 s⁻¹ and the kon was 175000 M⁻¹ s⁻¹.

Take B3: the Kd is 0.976 nM, the off-rate (koff) was 0.00026 s⁻¹ and the kon was 266000 M⁻¹ s⁻¹.

Molecule B4 yielded a Kd of 0.977 nM, a koff of 0.0002 s⁻¹ and a kon of 205000 M⁻¹ s⁻¹.

In the case of B5, the Kd was 1.13 nM, the off-rate constant (koff) turned out to be 0.000276 s⁻¹ and the association rate constant (kon) stood at 243000 M⁻¹ s⁻¹.

Regarding B6, the Kd came to 0.772 nM, the off-rate constant (koff) turned out to be 0.0002 s⁻¹ and the kon turned out to be 259000 M⁻¹ s⁻¹.

B7 displayed a Kd of 0.965 nM, a koff of 0.0002 s⁻¹ and a kon of 207000 M⁻¹ s⁻¹.

B8 came in with a Kd of 1.88 nM, a koff of 0.000528 s⁻¹ and a kon of 280000 M⁻¹ s⁻¹.

B9 came in with a dissociation constant (Kd) of 1.69 nM, a koff of 0.000423 s⁻¹ and a kon of 250000 M⁻¹ s⁻¹.

B10 gave a Kd of 0.951 nM, a koff of 0.0002 s⁻¹ and a kon of 210000 M⁻¹ s⁻¹.

In turn, B11 showed a Kd of 1.93 nM, a koff of 0.000542 s⁻¹ and a kon of 281000 M⁻¹ s⁻¹.

Turning to B12, the Kd was 0.722 nM, the koff was 0.000204 s⁻¹ and the kon amounted to 282000 M⁻¹ s⁻¹.

For the molecule B13, the Kd was determined as 1.94 nM, the off-rate constant (koff) came to 0.000454 s⁻¹ and the kon is 235000 M⁻¹ s⁻¹.

For the molecule B14, the Kd was found to be 1.02 nM, the koff was 0.0002 s⁻¹ and the kon was 196000 M⁻¹ s⁻¹.

B15 returned a Kd of 1.08 nM, a koff of 0.000282 s⁻¹ and a kon of 262000 M⁻¹ s⁻¹.

In turn, B16 showed a Kd of 1.15 nM, a koff of 0.000258 s⁻¹ and a kon of 225000 M⁻¹ s⁻¹.

As for B17, the Kd was determined as 9.63 nM, the koff was found to be 0.0011 s⁻¹ and the kon worked out at 114000 M⁻¹ s⁻¹.

B18 registered a Kd of 6.62 nM, a koff of 0.00094 s⁻¹ and a kon of 142000 M⁻¹ s⁻¹.

Molecule B19 displayed a Kd of 1.34 nM, a koff of 0.000325 s⁻¹ and a kon of 243000 M⁻¹ s⁻¹.

Molecule B20 came in with a Kd of 8.44 nM, a koff of 0.00141 s⁻¹ and a kon of 167000 M⁻¹ s⁻¹.

In the case of B21, the dissociation constant Kd turned out to be 1.54 nM, the koff came out at 0.000365 s⁻¹ and the on-rate (kon) amounted to 236000 M⁻¹ s⁻¹.

The molecule B22 had a Kd of 3.77 nM, a koff of 0.00082 s⁻¹ and a kon of 217000 M⁻¹ s⁻¹.

B23 returned a Kd of 9.15 nM, a koff of 0.00184 s⁻¹ and a kon of 201000 M⁻¹ s⁻¹.

As to B24, the affinity, expressed as Kd, was 1.3 nM; the koff stood at 0.000307 s⁻¹; the kon amounted to 235000 M⁻¹ s⁻¹.

(Values after US20230374132A1 (Innovent, published 2023).)
